Source: IntAct's records for PubMed 17036044

B1: Serine/arginine-rich splicing factor 3 (Homo sapiens), P84103 (parent)
chain: MHRDSCPLDCKVYVGNLGNNGNKTELERAFGYYGPLRSVWVARNPPGFAFVEFEDPRDAADAVRELDGRTLCGCRVRVELSNGEKRSRNRGPPPSWGRRPRDDYRRRSPPPRRRSPRRRSFSRSRSRSLSRDRRRERSLSRERNHKPSRSFSRSRSRSRSNERK
partner: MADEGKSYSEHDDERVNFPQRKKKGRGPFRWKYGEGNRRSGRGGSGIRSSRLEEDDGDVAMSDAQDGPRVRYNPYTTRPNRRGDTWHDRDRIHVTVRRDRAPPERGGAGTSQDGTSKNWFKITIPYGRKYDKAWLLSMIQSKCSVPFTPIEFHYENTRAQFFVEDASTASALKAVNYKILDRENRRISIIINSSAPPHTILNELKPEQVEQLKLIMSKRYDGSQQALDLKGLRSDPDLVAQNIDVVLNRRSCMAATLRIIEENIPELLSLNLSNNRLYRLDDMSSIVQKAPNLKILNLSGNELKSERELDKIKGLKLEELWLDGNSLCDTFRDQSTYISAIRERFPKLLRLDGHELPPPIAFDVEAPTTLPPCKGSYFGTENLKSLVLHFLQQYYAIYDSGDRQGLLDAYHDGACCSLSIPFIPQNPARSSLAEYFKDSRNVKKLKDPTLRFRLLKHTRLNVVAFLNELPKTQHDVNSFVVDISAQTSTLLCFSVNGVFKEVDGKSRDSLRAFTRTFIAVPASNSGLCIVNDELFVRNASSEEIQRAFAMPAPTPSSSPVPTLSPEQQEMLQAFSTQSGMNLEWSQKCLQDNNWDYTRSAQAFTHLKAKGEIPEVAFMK
B2: Serine/arginine-rich splicing factor 7 (Homo sapiens), Q16629 (parent)
chain: MSRYGRYGGETKVYVGNLGTGAGKGELERAFSYYGPLRTVWIARNPPGFAFVEFEDPRDAEDAVRGLDGKVICGSRVRVELSTGMPRRSRFDRPPARRPFDPNDRCYECGEKGHYAYDCHRYSRRRRSRSRSRSHSRSRGRRYSRSRSRSRGRRSRSASPRRSRSISLRRSRSASLRRSRSGSIKGSRYFQSPSRSRSRSRSISRPRSSRSKSRSPSPKRSRSPSGSPRRSASPERMD
partner: B1 partner

Variants of: B1
Conditions: with nxf1_human NXF1, Q9UBU9
In the case of MHRDSCPLDCKVYVGNLGNNGNKTELERAFGYYGPLRSVWVARNPPGFAFVEFEDPRDAADAVRELDGRTLCGCRVRVELSNGEKESRNRGPPPSWGRRPRDDYRRRSPPPRRRSPRRRSFSRSRSRSLSRDRRRERSLSRERNHKPSRSFSRSRSRSRSNERK, the “effect of a mutation on the interaction” value is reported as “disrupting interaction”.

Variants of: B1
Conditions: with nxf1_human NXF1, Q9UBU9
Remark: another data set of the same source
For MHRDSCPLDCKVYVGNLGNNGNKTELERAFGYYGPLRSVWVARNPPGFAFVEFEDPRDAADAVRELDGRTLCGCRVRVELSNGEKRSENRGPPPSWGRRPRDDYRRRSPPPRRRSPRRRSFSRSRSRSLSRDRRRERSLSRERNHKPSRSFSRSRSRSRSNERK, the “effect of a mutation on the interaction” value was “disrupting interaction”.

Variants of: B1
Conditions: with nxf1_human NXF1, Q9UBU9
Remark: another data set of the same source
For MHRDSCPLDCKVYVGNLGNNGNKTELERAFGYYGPLRSVWVARNPPGFAFVEFEDPRDAADAVRELDGRTLCGCRVRVELSNGEKRSRNEGPPPSWGRRPRDDYRRRSPPPRRRSPRRRSFSRSRSRSLSRDRRRERSLSRERNHKPSRSFSRSRSRSRSNERK, the “effect of a mutation on the interaction” value was “disrupting interaction”.

Variants of: B2
Conditions: with nxf1_human NXF1, Q9UBU9
With MSRYGRYGGETKVYVGNLGTGAGKGELERAFSYYGPLRTVWIARNPPGFAFVEFEDPRDAEDAVRGLDGKVICGSRVRVELSTGMPRESRFDRPPARRPFDPNDRCYECGEKGHYAYDCHRYSRRRRSRSRSRSHSRSRGRRYSRSRSRSRGRRSRSASPRRSRSISLRRSRSASLRRSRSGSIKGSRYFQSPSRSRSRSRSISRPRSSRSKSRSPSPKRSRSPSGSPRRSASPERMD [R88E] the “effect of a mutation on the interaction” value was “disrupting interaction”. With MSRYGRYGGETKVYVGNLGTGAGKGELERAFSYYGPLRTVWIARNPPGFAFVEFEDPRDAEDAVRGLDGKVICGSRVRVELSTGMPERSRFDRPPARRPFDPNDRCYECGEKGHYAYDCHRYSRRRRSRSRSRSHSRSRGRRYSRSRSRSRGRRSRSASPRRSRSISLRRSRSASLRRSRSGSIKGSRYFQSPSRSRSRSRSISRPRSSRSKSRSPSPKRSRSPSGSPRRSASPERMD [R87E] the “effect of a mutation on the interaction” value was “disrupting interaction”.

Variants of: B2
Conditions: with nxf1_human NXF1, Q9UBU9
Remark: another data set of the same source
MSRYGRYGGETKVYVGNLGTGAGKGELERAFSYYGPLRTVWIARNPPGFAFVEFEDPRDAEDAVRGLDGKVICGSRVRVELSTGMPRRSRFDRPPAREPFDPNDRCYECGEKGHYAYDCHRYSRRRRSRSRSRSHSRSRGRRYSRSRSRSRGRRSRSASPRRSRSISLRRSRSASLRRSRSGSIKGSRYFQSPSRSRSRSRSISRPRSSRSKSRSPSPKRSRSPSGSPRRSASPERMD [R98E] was tested, and the “effect of a mutation on the interaction” value was “disrupting interaction”. With MSRYGRYGGETKVYVGNLGTGAGKGELERAFSYYGPLRTVWIARNPPGFAFVEFEDPRDAEDAVRGLDGKVICGSRVRVELSTGMPRRSRFDRPPAERPFDPNDRCYECGEKGHYAYDCHRYSRRRRSRSRSRSHSRSRGRRYSRSRSRSRGRRSRSASPRRSRSISLRRSRSASLRRSRSGSIKGSRYFQSPSRSRSRSRSISRPRSSRSKSRSPSPKRSRSPSGSPRRSASPERMD [R97E] the “effect of a mutation on the interaction” value was “disrupting interaction”.
